Data set [1] can be described thus: SDS-PAGE/Western blot of non-boiled culture supernatant; self-association of subunits. Background: A western blot detects proteins with antibodies after separation by electrophoresis.
Data set [2] can be described thus: SDS-PAGE/Western blot of non-boiled culture supernatant, 20 uM biotin in medium; self-association of subunits.

B1: streptavidin mutein M4 (T76R, V125R, V55T, L109T), secreted by B. subtilis (protein)
chain: DPSKDSKAQVSAAEAGITGTWYNQLGSTFIVTAGADGALTGTYESAVGNAESRYTLTGRYDSAPATDGSGTALGWRVAWKNNYRNAHSATTWSGQYVGGAEARINTQWTLTSGTTEANAWKSTLRGHDTFTKVKPSAASIDAAKKAGVNNGNPLDAVQQ
For B1, the % monomer, no additional biotin in data set [1] was 100%. The same protein displayed a % monomer, with additional biotin in data set [2] of 100%.

These data come from US20060246519.
